Reference: patent US11819540B2, “Methods for treating and preventing neutrophil-derived net toxicity and thrombosis” (CHILDREN'S MEDICAL CENTER CORPORATION, priority 2011, dated 2023)
“Also recorded” adds a separate entry of the source.

Columns and labels:
[1] = tested on: TRALI in BALB/c mice; experiment: Two-event (LPS + anti-H-2Kd mAb) TRALI model; assay type: in vivo, mouse; details: i.v. administration
[2] = tested on: TRALI in BALB/c mice; experiment: Two-event (LPS + anti-H-2Kd mAb) TRALI model; assay type: in vivo, mouse
Description: In order to determine the effect of anti-NET compounds as a treatment for TRALI, a mouse model of the 2-hit TRALI model was utilized. BALB/c male mice (8-10 week-old) were primed with an intraperitoneal injection of lipopolysaccharide (LPS) (0.1 or 0.5 mg/kg) 24 hours prior to challenge with anti-H2K^dmAb (clone 34-1-2s1, 1 mg/kg) or isotype control injected retro-orbitally. Before each injection mice were shortly anesthetized by inhalation of isoflurane. To measure the effect of DNaseI treatment on mice experiencing TRALI, mice received intranasal DNaseI (50 μg/mouse, 1 μg/ul) or 50 μl of the buffer-vehicle 10 minutes prior to the antibody injection.
The model was adapted from Looney et al. (2009).^20 Male BALB/c mice (8-10 week old) were primed with an i.p. injection of LPS (0.1 or 0.5 mg/kg, as indicated in the text) 24 hours prior to challenge with anti-H-2K^d mAb (clone 34-1-2s, 1 mg/kg) or isotype control injected retro-orbitally. In experiments involving DNase 1 treatment, mice that were injected with both LPS and the anti-H-2K^d mAb received i.n. DNase 1 (PULMOZYME®, Genentech, 50 μg/mouse, 1 μg/ul) 10 minutes before or 90 minutes after antibody injection. Control TRALI mice were injected with 50 μl of the DNase 1 vehicle-buffer in DNase 1 experiments. Blood collection, lung harvesting and arterial oxygen saturation measurements were all performed 2 hours after antibody injection. No event of TRALI-related death was recorded under these conditions in any of the treated mice.
Rectal temperatures were measured as an indicator of shock-like condition 2 hours post anti-H-2K^d infusion using a rectal temperature probe (MOUSEOX PLUS® system, STARR Life Sciences) connected to a POWERLAB™ data acquisition system (ADInstruments, USA).
Mouse peripheral blood counts were measured from EDTA (ethylenediaminetetraacetic acid)-anti-coagulated blood with a HEMAVET™ 950 veterinary hematology analyzer (Drew Scientific). This blood counter uses two different currents to analyze the cells. A low voltage current determines the volume and the number of cells (Coulter Impedance principle) and a high voltage current that passes through the cells generates information on their internal structure such as nucleus, fluid, granules and vacuoles.
Mice were sacrificed and intubated with a 24-gauge cannula after their tracheas were surgically isolated. The lungs were flushed three times with 0.8 ml of sterile PBS. BAL fluids were centrifuged for 5 minutes at 800 g. Protein concentration was quantified in the supernatant using the bicinchoninic acid method.
Blood arterial oxygen saturation was recorded 2 hours after anti-H-2K^d antibody injection, using a small rodent oxymeter sensor (MOUSE^OX™, STARR Life Sciences) mounted on the collar of each tested mouse. The 2 hour endpoint was used as per the model published by Looney and colleagues in 2009.^20-22
Mouse lungs were fixed by intratracheal infusion of 1.5% formaldehyde/1.5% glutaraldehyde in sodium cacodylate buffer (pH 7.35), excised and bathed in the same solution for 2 hours at 4° C. The fixed lungs were sliced into 0.5 mm sections; the sections were washed extensively in distilled water, frozen on a liquid-helium cooled copper block, freeze-dried at −80° C., and coated with 2 nm of platinum at a 45° angle with rotation and 10 nm of carbon without rotation. Tissue was removed from the metal casting using bleach (Austin's A-1-5.25% sodium hypochlorite), washed and picked up on formvar-coated 200 mesh copper grids. Grids were photographed in a JEOL-1200 EX electron microscope at 100 kV.

[3] = intranasal DNaseI 50 μg/mouse 10 min prior to antibody

B1: rhDNase-1: recombinant human DNase-1 (Dornase alpha, Pulmozyme, Genentech) (protein, UniProt P24855 23-282, looked up)
Deoxyribonuclease-1: LKIAAFNIQTFGETKMSNATLVSYIVQILSRYDIALVQEVRDSHLTAVGKLLDNLNQDAPDTYHYVVSEPLGRNSYKERYLFVYRPDQVSAVDSYYYDDGCEPCGNDTFNREPAIVRFFSRFTEVREFAIVPLHAAPGDAVAEIDALYDVYLDVQEKWGLEDVMLMGDFNAGCSYVRPSQWSSIRLWTSPTFQWLIPDSADTTATPTHCAYDRIVVAGMLLRGAVVPDSALPFNFQAAYGLSDQLAQAISDHYPVEVMLK
TRALI outcome [1]: did not improve TRALI outcome | rectal temperature (shock-like condition) ([2]; 2 hours after mAb infusion, DNase 1 as prophylaxis or treatment): normal | arterial oxygen saturation (mean and minimum) ([2]; DNase 1 i.n. 90 minutes after onset of TRALI (Post)): improves arterial oxygen saturation; also recorded: succeeded in correcting the defect in blood oxygenation | arterial oxygen saturation (mean and minimum) ([2]; DNase 1 i.n. pretreatment 10 min before antibody (Pre)): succeeded in correcting the defect in blood oxygenation; also recorded: more stable arterial blood oxygen saturation and improved transient hypoxia | down spikes in blood arterial oxygen saturation (transient hypoxia) ([2]; DNase 1 i.n. pretreatment vs vehicle buffer): significantly attenuated | TRALI outcome ([2]; inhalation, before or after TRALI onset): had a positive effect | fibrous material (NETs) in alveoli, electron microscopy ([2]; intranasal DNase 1 50 μg/mouse 10 min prior to antibody injection): absent; also recorded: prevents their alveolar accumulation; also recorded: no fibrous material could be detected | TRALI-induced decrease of platelet counts [2, 3]: diminished | TRALI-induced increase of BAL protein levels [2, 3]: diminished
